The chains are these.
T1: Cynomolgus TCR(AEA41865/AEA41866)-zipper protein (cynomolgus monkey)
T1 construct: also called cyTCR-zipper protein; cynoTCR zipper
T1 TCR alpha: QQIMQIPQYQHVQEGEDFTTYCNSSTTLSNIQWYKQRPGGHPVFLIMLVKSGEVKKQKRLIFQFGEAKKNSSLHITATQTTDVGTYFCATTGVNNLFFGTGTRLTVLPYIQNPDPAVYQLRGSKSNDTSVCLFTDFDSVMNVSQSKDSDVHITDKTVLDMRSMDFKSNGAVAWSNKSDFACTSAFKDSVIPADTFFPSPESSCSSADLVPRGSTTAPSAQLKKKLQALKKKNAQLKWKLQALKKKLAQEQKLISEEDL
T1 TCR beta: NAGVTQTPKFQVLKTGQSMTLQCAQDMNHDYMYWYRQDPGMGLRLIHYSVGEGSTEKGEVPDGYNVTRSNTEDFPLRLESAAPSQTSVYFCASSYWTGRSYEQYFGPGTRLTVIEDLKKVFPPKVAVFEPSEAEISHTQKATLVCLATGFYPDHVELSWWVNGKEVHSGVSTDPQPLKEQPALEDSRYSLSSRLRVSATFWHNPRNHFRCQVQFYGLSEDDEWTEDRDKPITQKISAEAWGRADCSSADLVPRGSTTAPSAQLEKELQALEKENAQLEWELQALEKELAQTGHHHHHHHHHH

B1: T017000566 (VHH)
VHH: EVQLVESGGGVVQPGGSLRLSCVASGYVHKLNFLGWYRQAPGKEREKVAHISIGDQTDYADSAKGRFTISRDESKNMVYLQMNSLRPEDTALYFCRAMSRIWPYDWWGQGTLVTVSS
B2: T017000589 (VHH)
VHH: EVQLVESGGGVVQPGGSLRLSCVASGYVHKLNFYGWYRQAPGKEREKVAHISIGDQTDYADSAKGRFTISRDESKNMVYLQMNSLRPEDTALYFCRAMSRIWPYDWWGQGTLVTVSS
B3: T017000742 (VHH)
VHH: EVQLVESGGGVVQPGGSLRLSCVASGYVHQINFYGWYRQAPGKEREKVAHISIGDQTDYADSAKGRFTISRDESKNMVYLQMNSLRPEDTALYFCRAMSRIWPYDWWGQGTLVTVSS
B4: T017000609 (VHH)
VHH: EVQLVESGGGVVQPGGSLRLSCVASGDVHQINFLGWYRQAPGKEREKVAHISIGDQTDYADSAKGRFTISRDESKNMVYLQMNSLRPEDTALYFCRAFSKIYPYDYWGQGTLVTVSS
B5: T017000611 (VHH)
VHH: EVQLVESGGGVVQPGGSLRLSCVASGDVHQINFYGWYRQAPGKEREKVAHISIGDQTDYADSAKGRFTISRDESKNMVYLQMNSLRPEDTALYFCRAFSKIYPYDYWGQGTLVTVSS
B6: T017000754 (VHH)
VHH: EVQLVESGGGVVQPGGSLRLSCVASGYVHQINFLGWYRQAPGKEREKVAHISIGDQTDYADSAKGRFTISRDESKNMVYLQMNSLRPEDTALYFCRAMSKIWPYDYWGQGTLVTVSS
B7: T017000774 (VHH)
VHH: EVQLVESGGGVVQPGGSLRLSCVASGDVHQINFYGWYRQAPGKEREKVAHISIGDQTDYADSAKGRFTISRDESKNMVYLQMNSLRPEDTALYFCRAMSKIWPYDYWGQGTLVTVSS
B8: T017000577 (VHH)
VHH: EVQLVESGGGVVQPGGSLRLSCVASWDVHQINFLGWYRQAPGKEREKVAHISIGDQTDYADSAKGRFTISRDESKNMVYLQMNSLRPEDTALYFCRAMSRIYPYDYWGQGTLVTVSS
B9: T017000766 (VHH)
VHH: EVQLVESGGGVVQPGGSLRLSCVASGYVHKINFYGWYRQAPGKEREKVAHISIGDQTDYADSAKGRFTISRDESKNMVYLQMNSLRPEDTALYFCRAMSKIYPYDYWGQGTLVTVSS
B10: T017000614 (VHH)
VHH: EVQLVESGGGVVQPGGSLRLSCVASGYVHKINFYGWYRQAPGKEREKVAHISIGDQTDYADSAKGRFTISRDESKNMVYLQMNSLRPEDTALYFCRALSRIWPYDYWGQGTLVTVSS
B11: T017000612 (VHH)
VHH: EVQLVESGGGVVQPGGSLRLSCVASGDVHQLNFLGWYRQAPGKEREKVAHISIGDQTDYADSAKGRFTISRDESKNMVYLQMNSLRPEDTALYFCRALSKIYPYDYWGQGTLVTVSS
B12: T017000593 (VHH)
VHH: EVQLVESGGGVVQPGGSLRLSCVASGAVHKLNFYGWYRQAPGKEREKVAHISIGDQTDYADSAKGRFTISRDESKNMVYLQMNSLRPEDTALYFCRAMSKIWPYDYWGQGTLVTVSS
B13: T017000776 (VHH)
VHH: EVQLVESGGGVVQPGGSLRLSCVASWSVHQINFYGWYRQAPGKEREKVAHISIGDQTDYADSAKGRFTISRDESKNMVYLQMNSLRPEDTALYFCRAMSKIWPYDYWGQGTLVTVSS
B14: T017000608 (VHH)
VHH: EVQLVESGGGVVQPGGSLRLSCVASWDVHKINFYGWYRQAPGKEREKVAHISIGDQTDYADSAKGRFTISRDESKNMVYLQMNSLRPEDTALYFCRAFSKIWPYDYWGQGTLVTVSS
B15: T017000740 (VHH)
VHH: EVQLVESGGGVVQPGGSLRLSCVASWDVHQLNFYGWYRQAPGKEREKVAHISIGDQTDYADSAKGRFTISRDESKNMVYLQMNSLRPEDTALYFCRAMSKIYPYDYWGQGTLVTVSS
B16: T017000610 (VHH)
VHH: EVQLVESGGGVVQPGGSLRLSCVASGDVHQINFLGWYRQAPGKEREKVAHISIGDQTDYADSAKGRFTISRDESKNMVYLQMNSLRPEDTALYFCRALSKIYPYDYWGQGTLVTVSS
B17: T017000588 (VHH)
VHH: EVQLVESGGGVVQPGGSLRLSCVASGAVHKINFYGWYRQAPGKEREKVAHISIGDQTDYADSAKGRFTISRDESKNMVYLQMNSLRPEDTALYFCRAMSKIWPYDYWGQGTLVTVSS
B18: T017000757 (VHH)
VHH: EVQLVESGGGVVQPGGSLRLSCVASGAVHKLNFLGWYRQAPGKEREKVAHISIGDQTDYADSAKGRFTISRDESKNMVYLQMNSLRPEDTALYFCRAFSKIWPYDWWGQGTLVTVSS
B19: T017000578 (VHH)
VHH: EVQLVESGGGVVQPGGSLRLSCVASYDVHQLNFYGWYRQAPGKEREKVAHISIGDQTDYADSAKGRFTISRDESKNMVYLQMNSLRPEDTALYFCRAMSRIWPYDYWGQGTLVTVSS
B20: T017000750 (VHH)
VHH: EVQLVESGGGVVQPGGSLRLSCVASYAVHQINFYGWYRQAPGKEREKVAHISIGDQTDYADSAKGRFTISRDESKNMVYLQMNSLRPEDTALYFCRAMSRIWPYDYWGQGTLVTVSS
B21: T017000759 (VHH)
VHH: EVQLVESGGGVVQPGGSLRLSCVASGSVHKINFYGWYRQAPGKEREKVAHISIGDQTDYADSAKGRFTISRDESKNMVYLQMNSLRPEDTALYFCRAFSKIWPYDWWGQGTLVTVSS
B22: T017000607 (VHH)
VHH: EVQLVESGGGVVQPGGSLRLSCVASWDVHQINFYGWYRQAPGKEREKVAHISIGDQTDYADSAKGRFTISRDESKNMVYLQMNSLRPEDTALYFCRAFSKIWPYDYWGQGTLVTVSS

The record followed here is patent US20240092919A1 (Ablynx, published 2024).

One may read the koff as the rate constant with which the complex falls apart. A higher koff goes with a short-lived complex.

In the assay the target is T1, Cynomolgus …. The assay can be described thus: SPR ProteOn off-rate screen.
B1 gave a koff of 0.00164 s⁻¹.
To B2 belongs 0.00115 s⁻¹; to B3, 0.00391 s⁻¹; to B4, 0.00114 s⁻¹.
As for B5, the koff came out at 0.00171 s⁻¹.
In turn, B6 gave a koff of 0.000237 s⁻¹.
To B7 belongs 0.000431 s⁻¹; to B8, 0.00188 s⁻¹; to B9, 0.000239 s⁻¹.
B10 displayed a koff of 0.00116 s⁻¹.
The value for B11 was 0.00105 s⁻¹; that for B12 was 0.00019 s⁻¹.
The value for B13 was 0.000525 s⁻¹.
The value for B14 was 0.000472 s⁻¹; that for B15 was 0.000391 s⁻¹; that for B16 was 0.000857 s⁻¹.
The molecule B17 displayed a koff of 0.000158 s⁻¹.
B18 yielded a koff of 0.000603 s⁻¹.
To B19 belongs 0.00349 s⁻¹; to B20, 0.00373 s⁻¹.
The value for B21 was 0.00101 s⁻¹; that for B22 was 0.000316 s⁻¹.
